This assay has as its target CaM-agarose (Sigma), P62157. As to the kind of experiment: pull-down; CaM-agarose (Sigma) incubated with HEK293 lysate expressing a V5-His-tagged TRP channel; 20 mM Tris-HCl pH 7.4, 150 mM NaCl, 1% NP-40, 4 °C; 1 mM Ca2+ (Fig. 2A) or 2 mM Ca2+ (Fig. 2B); blot with anti-V5. As to conditions: remark: other sources report otherwise.

Experimental findings from PMC5362816 are described below.

B1: TRPV2 (V5-His tagged), Q9WUD2 1-761 (natural protein)
chain: MTSASSPPAFRLETSDGDEEGNAEVNKGKQEPPPMESPFQREDRNSSPQIKVNLNFIKRPPKNTSAPSQQEPDRFDRDRLFSVVSRGVPEELTGLLEYLRWNSKYLTDSAYTEGSTGKTCLMKAVLNLQDGVNACIMPLLQIDKDSGNPKLLVNAQCTDEFYQGHSALHIAIEKRSLQCVKLLVENGADVHLRACGRFFQKHQGTCFYFGELPLSLAACTKQWDVVTYLLENPHQPASLEATDSLGNTVLHALVMIADNSPENSALVIHMYDGLLQMGARLCPTVQLEEISNHQGLTPLKLAAKEGKIEIFRHILQREFSGPYQPLSRKFTEWCYGPVRVSLYDLSSVDSWEKNSVLEIIAFHCKSPNRHRMVVLEPLNKLLQEKWDRLVSRFFFNFACYLVYMFIFTVVAYHQPSLDQPAIPSSKATFGESMLLLGHILILLGGIYLLLGQLWYFWRRRLFIWISFMDSYFEILFLLQALLTVLSQVLRFMETEWYLPLLVLSLVLGWLNLLYYTRGFQHTGIYSVMIQKVILRDLLRFLLVYLVFLFGFAVALVSLSREARSPKAPEDNNSTVTEQPTVGQEEEPAPYRSILDASLELFKFTIGMGELAFQEQLRFRGVVLLLLLAYVLLTYVLLLNMLIALMSETVNHVADNSWSIWKLQKAISVLEMENGYWWCRRKKHREGRLLKVGTRGDGTPDERWCFRVEEVNWAAWEKTLPTLSEDPSGPGITGNKKNPTSKPGKNSASEEDHLPLQVLQSP
modifications: here or on the partner: coupled to agarose
B1: the relative binding to CaM (normalized by total input) stood at 0.8.

B2: TRPM8 (V5-His tagged), Q8R455 1-1104 (natural protein)
chain: MSFEGARLSMRSRRNGTLGSTRTLYSSVSRSTDVSYSESDLVNFIQANFKKRECVFFTRDSKAMESICKCGYAQSQHIEGTQINQNEKWNYKKHTKEFPTDAFGDIQFETLGKKGKYLRLSCDTDSETLYELLTQHWHLKTPNLVISVTGGAKNFALKPRMRKIFSRLIYIAQSKGAWILTGGTHYGLMKYIGEVVRDNTISRNSEENIVAIGIAAWGMVSNRDTLIRNCDDEGHFSAQYIMDDFMRDPLYILDNNHTHLLLVDNGCHGHPTVEAKLRNQLEKYISERTSQDSNYGGKIPIVCFAQGGGRETLKAINTSVKSKIPCVVVEGSGQIADVIASLVEVEDVLTSSMVKEKLVRFLPRTVSRLPEEEIESWIKWLKEILESPHLLTVIKMEEAGDEVVSSAISYALYKAFSTNEQDKDNWNGQLKLLLEWNQLDLASDEIFTNDRRWESADLQEVMFTALIKDRPKFVRLFLENGLNLQKFLTNEVLTELFSTHFSTLVYRNLQIAKNSYNDALLTFVWKLVANFRRSFWKEDRSSREDLDVELHDASLTTRHPLQALFIWAILQNKKELSKVIWEQTKGCTLAALGASKLLKTLAKVKNDINAAGESEELANEYETRAVELFTECYSSDEDLAEQLLVYSCEAWGGSNCLELAVEATDQHFIAQPGVQNFLSKQWYGEISRDTKNWKIILCLFIIPLVGCGLVSFRKKPIDKHKKLLWYYVAFFTSPFVVFSWNVVFYIAFLLLFAYVLLMDFHSVPHTPELILYALVFVLFCDEVRQWYMNGVNYFTDLWNVMDTLGLFYFIAGIVFRLHSSNKSSLYSGRVIFCLDYIIFTLRLIHIFTVSRNLGPKIIMLQRMLIDVFFFLFLFAVWMVAFGVARQGILRQNEQRWRWIFRSVIYEPYLAMFGQVPSDVDSTTYDFSHCTFSGNESKPLCVELDEYNLPRFPEWITIPLVCIYMLSTNILLVNLLVAMFGYTVGIVQENNDQVWKFQRYFLVQEYCNRLNIPFPFVVFAYFYMVVKKCFKCCCKEKNTESSACCFRNEDNETLAWEGVMKENYLVKINTKANDNAEEMRHRFRQLDTKLNDLKGLLKEIANKIK
modifications: here or on the partner: coupled to agarose
As for B2, the relative binding to CaM (normalized by total input) came to 0.9.
